Experimental data: PMC10881398, “O-glycosylation of the transcription factor SPATULA promotes style development in Arabidopsis” (Nature Plants, 2024)

T1: 6xHis-SPT (SPATULA) (Arabidopsis thaliana, UniProt Q9FUA4 1-373)
T1 sequence: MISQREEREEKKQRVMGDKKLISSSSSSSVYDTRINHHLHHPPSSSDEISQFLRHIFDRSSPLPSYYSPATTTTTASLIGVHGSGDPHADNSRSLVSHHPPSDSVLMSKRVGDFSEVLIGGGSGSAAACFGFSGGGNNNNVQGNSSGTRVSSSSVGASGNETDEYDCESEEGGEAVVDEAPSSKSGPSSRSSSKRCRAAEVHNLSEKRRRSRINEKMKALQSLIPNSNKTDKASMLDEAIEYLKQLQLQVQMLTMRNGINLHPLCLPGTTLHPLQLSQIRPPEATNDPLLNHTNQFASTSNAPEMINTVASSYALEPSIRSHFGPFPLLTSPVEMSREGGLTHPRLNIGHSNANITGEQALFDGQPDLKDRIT

T2: HEC1–RFP (35S::HEC1–RFP) (Arabidopsis thaliana, UniProt Q9FHA7 1-241)
T2 construct: HECATE 1 (HEC1), bHLH transcription factor, Arabidopsis thaliana; the cloning of this construct is not described; the methods describe the FRET–FLIM constructs of SPT and IND only; also called HECATE 1; source: N. benthamiana leaves, Agrobacterium-infiltrated, in nuclei of leaf cells
T2 sequence (looked up): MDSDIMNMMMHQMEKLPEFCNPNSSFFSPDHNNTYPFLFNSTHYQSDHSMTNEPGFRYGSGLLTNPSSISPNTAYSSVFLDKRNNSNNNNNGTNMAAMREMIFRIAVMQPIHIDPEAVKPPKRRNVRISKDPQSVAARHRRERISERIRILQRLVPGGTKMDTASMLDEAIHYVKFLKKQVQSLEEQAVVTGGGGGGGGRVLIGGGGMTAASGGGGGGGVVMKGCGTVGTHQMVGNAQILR

T3: IND–RFP (35S::IND–RFP) (Arabidopsis thaliana, UniProt O81313 1-198)
T3 construct: INDEHISCENT (IND), bHLH transcription factor, Arabidopsis thaliana; also called INDEHISCENT; source: N. benthamiana leaves, Agrobacterium-infiltrated, in nuclei of leaf cells
T3 sequence (looked up): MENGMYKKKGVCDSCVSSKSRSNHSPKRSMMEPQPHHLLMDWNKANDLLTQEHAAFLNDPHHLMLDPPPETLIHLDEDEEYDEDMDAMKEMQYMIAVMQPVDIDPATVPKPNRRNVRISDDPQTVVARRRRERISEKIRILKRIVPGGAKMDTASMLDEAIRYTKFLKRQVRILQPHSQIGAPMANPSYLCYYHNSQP

B1: 171-bp pPID G-box mutant (CACGTG to TGATGA) (dsDNA)
DNA 1: GCACCCCTATAATATGCCTAGAGGAAATAAGAAGAAAAAATAATGGGGAAAAAGAGAAGCTACTGCTACACTTTCAGGTGATGAACAACGTCTCATGATGATCATATATCTTACGTCATCAAGTCCTCTTTTTCTCTCTTTCACTTTTCTGTTTACCTCTCTCACGCGTTG
DNA 2: CAACGCGTGAGAGAGGTAAACAGAAAAGTGAAAGAGAGAAAAAGAGGACTTGATGACGTAAGATATATGATCATCATGAGACGTTGTTCATCACCTGAAAGTGTAGCAGTAGCTTCTCTTTTTCCCCATTATTTTTTCTTCTTATTTCCTCTAGGCATATTATAGGGGTGC
B2: SPT–GFP (35S::SPT::GFP) (natural protein, Arabidopsis thaliana, UniProt Q9FUA4 1-373, looked up)
chain: T1 sequence
notes: SPATULA (SPT), Arabidopsis thaliana; in the self-association row the second copy carried RFP in place of EGFP (35S::SPT–RFP); also called SPT–EGFP; SPT–RFP (the second copy in the homodimer test); source: N. benthamiana leaves, Agrobacterium-infiltrated, in nuclei of leaf cells

Columns and labels:
6xHis-SPT (SPATULA) = molecular target: T1, 6xHis-SPT (SPATULA); experiment: EMSA; legend: binding abolished; text: strongly abolished; EMSA: 150 ng DNA, '1x' buffer as printed 250 mM Tris-HCl pH 8.0, 500 mM NaCl, 25% glycerol, 10 mM DTT; on ice 20 min; 5% native acrylamide gel, 1x TBE, EB stain; conditions: protein: recombinant; tags: 6xHis N-terminal (pRSFDuet); chain copies: 2; label: none (EB stain); blunt
HEC1–RFP (35S::HEC1–RFP) = molecular target: T2, HEC1–RFP (35S::HEC1–RFP); experiment: FRET or BRET; FRET–FLIM in nuclei of co-infiltrated N. benthamiana leaves; donor SPT–EGFP, acceptor RFP fusions; efficiency E = 1 − τDA/τD with SPT–EGFP;RFP–NLS as the donor-only reference; with or without co-expressed SEC–3xHA or SPY–3xHA; conditions: partners not purified
[1] = molecular target: the molecule itself; experiment: as above
IND–RFP (35S::IND–RFP) = molecular target: T3, IND–RFP (35S::IND–RFP); experiment: as above; conditions: partners not purified

Binder | binding result (6xHis-SPT (SPATULA)) | FRET efficiency (HEC1–RFP (35S::HEC1–RFP)) [%] | FRET efficiency [1] [%] | FRET efficiency (IND–RFP (35S::IND–RFP)) [%]
B1 | no binding |  |  | 
B2 |  | 7.4 | 5.7 | 9.6
